From US20210077638A1 come the findings set out here.

Experiment [1] deals with human MET on EBC-1, NCI-H441 and NCI-H358 cells (human) (UniProt P08581). Kind of experiment: saturation radioligand binding on NCI-H441 cells, 4 C, single-site fit, n=4.
For experiment [2] the target is unchanged. Kind of experiment: saturation radioligand binding (antibody binding capacity) assay with 89Zr-DFO-Comp1 on EBC-1 cells, 4 C, 45 min, gamma counting; x axis is total antibody dosed, not free.
Experiment [3] shares this target. As to the kind of experiment: saturation radioligand binding (antibody binding capacity) assay with 89Zr-DFO-Comp1 on NCI-H441 cells, 4 C, 45 min, gamma counting; x axis is total antibody dosed, not free.
For experiment [4] the target is unchanged. As to the kind of experiment: saturation radioligand binding on EBC-1 cells, 4 C, single-site fit, n=4.
Experiment [5] shares this target. Kind of experiment: saturation radioligand binding on NCI-H358 cells, 4 C, single-site fit, n=2.

Sequence of human MET on EBC-1, NCI-H441 and NCI-H358 cells (human) (P08581 25-1390): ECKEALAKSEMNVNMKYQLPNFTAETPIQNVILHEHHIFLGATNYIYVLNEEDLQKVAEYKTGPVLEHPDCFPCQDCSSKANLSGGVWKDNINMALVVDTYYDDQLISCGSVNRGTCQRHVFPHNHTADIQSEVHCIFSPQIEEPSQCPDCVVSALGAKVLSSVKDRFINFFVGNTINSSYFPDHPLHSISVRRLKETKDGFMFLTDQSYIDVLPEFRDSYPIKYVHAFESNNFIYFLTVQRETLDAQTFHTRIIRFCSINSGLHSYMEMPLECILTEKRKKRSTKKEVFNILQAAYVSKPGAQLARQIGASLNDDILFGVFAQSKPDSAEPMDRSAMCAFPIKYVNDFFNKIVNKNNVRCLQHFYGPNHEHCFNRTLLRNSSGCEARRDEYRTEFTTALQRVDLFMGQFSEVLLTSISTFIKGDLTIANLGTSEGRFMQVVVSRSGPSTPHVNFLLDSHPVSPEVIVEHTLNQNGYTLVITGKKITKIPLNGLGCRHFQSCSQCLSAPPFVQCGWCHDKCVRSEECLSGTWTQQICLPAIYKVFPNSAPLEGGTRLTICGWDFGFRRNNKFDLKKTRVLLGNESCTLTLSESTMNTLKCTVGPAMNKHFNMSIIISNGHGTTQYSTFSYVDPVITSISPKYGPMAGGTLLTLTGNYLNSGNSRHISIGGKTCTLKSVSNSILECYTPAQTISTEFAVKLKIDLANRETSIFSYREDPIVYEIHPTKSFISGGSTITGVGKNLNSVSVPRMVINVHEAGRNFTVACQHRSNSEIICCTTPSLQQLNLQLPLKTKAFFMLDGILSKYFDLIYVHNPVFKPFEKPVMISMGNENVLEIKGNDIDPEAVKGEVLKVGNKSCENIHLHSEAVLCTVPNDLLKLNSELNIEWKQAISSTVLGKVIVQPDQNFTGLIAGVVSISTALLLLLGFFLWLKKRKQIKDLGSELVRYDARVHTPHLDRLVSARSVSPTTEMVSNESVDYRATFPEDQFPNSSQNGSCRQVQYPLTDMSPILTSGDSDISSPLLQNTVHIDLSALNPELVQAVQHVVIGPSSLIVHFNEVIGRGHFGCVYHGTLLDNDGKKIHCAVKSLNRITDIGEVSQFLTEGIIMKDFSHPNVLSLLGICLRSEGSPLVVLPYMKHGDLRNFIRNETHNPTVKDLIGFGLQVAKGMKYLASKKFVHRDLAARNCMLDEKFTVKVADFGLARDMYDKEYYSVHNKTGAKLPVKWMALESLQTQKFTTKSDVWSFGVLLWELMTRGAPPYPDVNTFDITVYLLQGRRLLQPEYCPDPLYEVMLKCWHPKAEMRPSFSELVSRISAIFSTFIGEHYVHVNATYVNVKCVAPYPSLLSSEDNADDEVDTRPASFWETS

B1: 89Zr-DFO-anti-Met single-arm comparator antibody (Comp1; Onartuzumab) (antibody, INN chains, looked up, V domains shown)
VH: EVQLVESGGGLVQPGGSLRLSCAASGYTFTSYWLHWVRQAPGKGLEWVGMIDPSNSDTRFNPNFKDRFTISADTSKNTAYLQMNSLRAEDTAVYYCATYRSYVTPLDYWGQGTLVTVSS
VL: DIQMTQSPSSLSASVGDRVTITCKSSQSLLYTSSQKNYLAWYQQKPGKAPKLLIYWASTRESGVPSRFSGSGSGTDFTLTISSLQPEDFATYYCQQYYAYPWTFGQGTKVEIK
modifications: one-armed monovalent 89Zr-DFO label
For the molecule B1, the ABC (antibody binding capacity) in experiment [1] is 62000 per cell; in experiment [4] it was 250000 per cell; in experiment [5], 21000 per cell. In addition, the results for the EC50 (read off the curve) in experiment [2] and in experiment [3] were 4 nM and 3 nM, respectively.
